Measurements reported in patent US20250026816A1, “Antibodies for Use as Therapeutics Against Bacterial Infections” (priority 2021, published 2025).

B1: Antibody 1348 (antibody, V domains shown)
VH: EVQLVESGGGFVQPGRSLRLSCIASGFTFDDYAMHWVRQTPGKGLEWVSVISWNSVSIGYADSVKGRFTISRDNAKNSLYLQMNSLRAEDTALYYCARYSSGPDAFDIWGQGTMVTVSS
VL: DIQMTQSPSSLSASVGDRVTITCRASQDIRNDLGWYQQKPGKAPKRLIYAASSLQSGVPSRFSGSGFGTEFTLTISSLQPEDFATYYCLQHYTYPPTFGGGTRVEIK
notes: Only variable domains are tied to 1348; also called PPB-1348
B2: Antibody 1540 (antibody, V domains shown)
VH: EVQLVESGGGFVQPGRSLRLSCIASGFTFDDYAMHWVRQTPGKGLEWVSVISWNSVSIGYADSVKGRFTISRDNAKNSLYLQMNSLRAEDTALYYCARYSSGPDAFDIWGQGTMVTVSS
VL: DIQMTQSPSSLSASVGDRVTITCRASQDIRNDLGWYQQKPGKAPKRLIYAASSLQSGVPSRFSGSGFGTEFTLTISSLQPEDFATYYCLQHYTYPPTFGGGTRVEIK
notes: also called PPB-1540
B3: 1540 (antibody, V domains shown)
VH: EVQLVESGGGFVQPGRSLRLSCIASGFTFDDYAMHWVRQTPGKGLEWVSVISWNSVSIGYADSVKGRFTISRDNAKNSLYLQMNSLRAEDTALYYCARYSSGPDAFDIWGQGTMVTVSS
VL: DIQMTQSPSSLSASVGDRVTITCRASQDIRNDLGWYQQKPGKAPKRLIYAASSLQSGVPSRFSGSGFGTEFTLTISSLQPEDFATYYCLQHYTYPPTFGGGTRVEIK
B4: 1348 (antibody, V domains shown)
VH: EVQLVESGGGFVQPGRSLRLSCIASGFTFDDYAMHWVRQTPGKGLEWVSVISWNSVSIGYADSVKGRFTISRDNAKNSLYLQMNSLRAEDTALYYCARYSSGPDAFDIWGQGTMVTVSS
VL: DIQMTQSPSSLSASVGDRVTITCRASQDIRNDLGWYQQKPGKAPKRLIYAASSLQSGVPSRFSGSGFGTEFTLTISSLQPEDFATYYCLQHYTYPPTFGGGTRVEIK
B5: Antibody 1548 (antibody, V domains shown)
VH: QVQLVESGGGVVQPGRSLRLSCAASGFTFSSYAMHWVRQAPGKGLEWVAVISYDGSNKYYADSVKGRFTISRDNSKNTLYLQMNSLRAEDTAVYYCAGYGGNSLDPWGQGTLVTVSS
VL: AIQMTQSPSSLSASVGDRVTITCRASQGIRNDLVWYQQKPGKAPKVLIYDASSLQSGVPSRFSGSGFGTDFTLTISSLQPEDFATYYCLQDYNYPCSFGQGTKLEIK
notes: also called PPB-1548
B6: Antibody 1550 (antibody, V domains shown)
VH: QVQLVESGGGVVQPGRSLRLSCAASGFTFSSYGMHWVRQAPGKGLEWVAVISYDGSNKYYADSVKGRFTISRDNSKNTLYLQMNSLRAEDTAVYYCAKESLTMVRGEGFDPWGQGTLVTVSS
VL: DIQMTQSPSSVSASVGDRVTITCRASQGISSWLAWYQQKPGKAPKLLIYAASSLQSGVPSRFSGSGSGTDFTLTISSLQPEDFATYYCQQANSFPCSFGQGTKLEIK
notes: also called PPB-1550
B7: Antibody 1349 (antibody, V domains shown)
VH: QITLKESGPTLVKPTQTLTLTCTFSGFSLSTSGVGVGWIRQPPGKALEWLALIYWDDDKRYSPSLKSRLTITKDTSKNQVVLTMTNMDPVDTATYYCAHSYYYDSSDSYYFDYWGQGTLVTVSS
VL: DIQLTQSPSFLSASVGDRVTITCWASQGISSRLAWYQQKPGKAPKLLIYAASTLQSGVPSRFSGSGSGTEFTLTISSLQPEDFGNYYCQQFNTYPFTFGPGTKVDIKR
notes: It was expressed as human IgG1; also called PPB-1349
B8: Antibody 1042: anti-OC1 LOS antibody; VH SEQ ID No: 188, VL SEQ ID No: 191 (antibody, V domains shown)
VH: QITLKESGPTLVKPTQTLTLTCTFSGFSLSTSGVGVGWIRQPPGKALEWLAVIYWDDDKRYSPSLKSRVTITKDTSKNQVVLTMTNMDPVDTATYYCAHSYYHDSSDSYYFDYWAQGTLVTVSS
VL: DIQLTQSPSFLSASVGDRVTITCWASQGISSRLAWYQQKPGKAPKLLIYAASTLQSGVPSRFSGSGSGTEFTLTISSLQPEDFATYYCQQLTSYPFTFGPGTKVDIK

Legend:
[1] = target: T1, Oxa-23 carbapenemase enzyme (Acinetobacter baumannii, UniProt Q9L4P2 18-273); assay: serological expression cloning: mAb screened on plaques of a phage expression library of A. baumannii genomic DNA (BAL 084, BAL 276), bound phage sequenced
T1 construct: No signal peptide cleavage site is stated; also called class D beta-lactamase; 30kD protein
T1 sequence (Q9L4P2 18-273 limits assumed): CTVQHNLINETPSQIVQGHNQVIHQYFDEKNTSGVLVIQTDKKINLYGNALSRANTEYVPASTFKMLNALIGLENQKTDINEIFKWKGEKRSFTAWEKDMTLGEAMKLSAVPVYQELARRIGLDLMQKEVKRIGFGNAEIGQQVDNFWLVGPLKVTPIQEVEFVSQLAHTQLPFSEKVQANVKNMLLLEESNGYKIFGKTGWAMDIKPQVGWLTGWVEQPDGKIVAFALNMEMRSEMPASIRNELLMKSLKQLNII

[2] = target: T1, Oxa-23 carbapenemase enzyme; assay: binding to Oxa-23 on A. baumannii OMVs; method not given at this place
Oxa-23 [3] = target: T2, Oxa-23 (Acinetobacter baumannii, UniProt Q9L4P2); assay: Specific binding to Oxa-23 on OMVs (summary statement); details: on outer membrane vesicles (OMVs) of Acinetobacter baumannii bacteria
T2 construct: endogenous in cells; host or cells: OMVs of GC2 A. baumannii clinical strains
T2 sequence (Q9L4P2 18-273): as the sequence (Q9L4P2 18-273 limits assumed) above

Oxa-23 [4] = target: T2, Oxa-23; assay: Phage expression library screen (serological expression cloning) for antigen identification; assay type: binding; details: phage expression library of genomic DNA from strains BAL 084 and BAL 276
Description: The particular binding antigen (e.g. Oxa-23, OC1 LOS, or KL49) of an antibody may be determined using a phage expression library e.g. as described in Example 5. For example, shotgun A. Baumannii genomic DNA is incorporated into a phage expression library. The antibody is then screened for reactivity with phage plaques from the expression library and the individual phage binding to the antibody is identified. The identified phage is sequenced, and the sequencing information used to elucidate the binding antigen of the antibody. A suitable phage method for antigen identification will be known to a person skilled in the art. For example, a suitable phage method is described in Lodes M J, Dillon D C, Houghton R L, Skeiky Y A. Expression cloning. Methods Mol Med. 2004; 94:91-106. doi: 10.1385/1-59259-679-7:91. PMID: 14959824, the contents of which are incorporated by reference.
Focusing on the cross-reactive mAbs identified, we used a phage expression library incorporating shotgun A. baumannii genomic DNA from strains BAL 084 and BAL 276. […] The LOS types were determined for a selection of isolates by OCL specific PCR. […] Next, LOS was extracted (with extensive proteinase K treatment to remove any proteins) and analyzed by Western blot using mAb 1042). […] Capsule antigens were extracted from selected strains bearing KL49 and analyzed by subsequent SDS-PAGE and Western blot analysis using the mAb 1416.

E. coli NCTC 13441 LPS = assay: Western blot of extracted LPS (control); assay type: binding; details: E. coli NCTC13441 (025b)
Description: (§1) Focusing on the cross-reactive mAbs identified, we used a phage expression library incorporating shotgun A. baumannii genomic DNA from strains BAL 084 and BAL 276. Because the mAbs could potentially bind a polypeptide epitope, we screened mAbs for reactivity with phage plaques from the phage expression library. Using this screening mechanism, we were able to identify individual phage binding to Abs 1348, 1349. By sequencing the phage, we were able to elucidate 1348 and 1349 bound Oxa-23, a class D […] that is a major group of enzymes involved in resistance to carbapenem antibiotics. That we have identified mAbs binding to Oxa-23 in a target agnostic screen is highly significant. […] Secondly, since Oxa-23 is a functional enzyme that inactivates carbapenem and carbapenem resistance is a major clinical issue for the treatment of nosocomial A. baumannii infection, it may be possible to block enzymatic function of Oxa-23 by mAbs and render A. baumannii susceptible to carbapenems. […] The LOS types were determined for a selection of isolates by OCL specific PCR. […] Next, LOS was extracted (with extensive proteinase K treatment to remove any proteins) and analyzed by Western blot using mAb 1042). […] Capsule antigens were extracted from selected strains bearing KL49 and analyzed by subsequent SDS-PAGE and Western blot analysis using the mAb 1416.

OC1 LOS = assay: Western blot of extracted LOS; assay type: binding, Acinetobacter baumannii
Description: as §1

| Molecule | binding result [2] | specific binding to Oxa-23 (Oxa-23 [3]) | further results |
| --- | --- | --- | --- |
| B1 |  |  | binding result [1]: binds |
| B2 | binds |  |  |
| B3 |  | specifically bind to Oxa-23 |  |
| B4 |  | specifically bind to Oxa-23 | antigen bound, elucidated by sequencing the binding phage (Oxa-23 [4]): bound Oxa-23 |
| B5 | binds | specifically bind to Oxa-23 |  |
| B6 | binds | specifically bind to Oxa-23 |  |
| B7 |  |  | binding result [1]: binds |
| B8 |  |  | binding to extracted LPS (E. coli NCTC 13441 LPS): no binding; binding to extracted LOS (OC1 LOS; ATCC 17978 (OCL2)): no binding; binding to 10kD target in extracted LOS (OC1 LOS; OC1 isolates A. baumannii BAL_191, BAL_339, BAL_372): Specific binding |
